molecular target: T1, EsCas13d, nuclease-dead (Eubacterium siraeum, UniProt B0MS50, R295A;H300A;R849A;H854A); test: crRNA (strand 1, pre-loaded); Mg2+; 40 mM Tris-HCl pH 7.5, 150 mM NaCl, 6 mM MgCl2, 1 mM DTT, 0.1% Tween-20, 0.2 mg/ml BSA; 25 C; 10 min per concentration, then washed; settings: tags: His6-TwinStrep-SUMO cleaved; N-terminal SNAP kept (SNAP-Surface 488); label: 3' end held by stalled T7 RNA polymerase
T1 sequence: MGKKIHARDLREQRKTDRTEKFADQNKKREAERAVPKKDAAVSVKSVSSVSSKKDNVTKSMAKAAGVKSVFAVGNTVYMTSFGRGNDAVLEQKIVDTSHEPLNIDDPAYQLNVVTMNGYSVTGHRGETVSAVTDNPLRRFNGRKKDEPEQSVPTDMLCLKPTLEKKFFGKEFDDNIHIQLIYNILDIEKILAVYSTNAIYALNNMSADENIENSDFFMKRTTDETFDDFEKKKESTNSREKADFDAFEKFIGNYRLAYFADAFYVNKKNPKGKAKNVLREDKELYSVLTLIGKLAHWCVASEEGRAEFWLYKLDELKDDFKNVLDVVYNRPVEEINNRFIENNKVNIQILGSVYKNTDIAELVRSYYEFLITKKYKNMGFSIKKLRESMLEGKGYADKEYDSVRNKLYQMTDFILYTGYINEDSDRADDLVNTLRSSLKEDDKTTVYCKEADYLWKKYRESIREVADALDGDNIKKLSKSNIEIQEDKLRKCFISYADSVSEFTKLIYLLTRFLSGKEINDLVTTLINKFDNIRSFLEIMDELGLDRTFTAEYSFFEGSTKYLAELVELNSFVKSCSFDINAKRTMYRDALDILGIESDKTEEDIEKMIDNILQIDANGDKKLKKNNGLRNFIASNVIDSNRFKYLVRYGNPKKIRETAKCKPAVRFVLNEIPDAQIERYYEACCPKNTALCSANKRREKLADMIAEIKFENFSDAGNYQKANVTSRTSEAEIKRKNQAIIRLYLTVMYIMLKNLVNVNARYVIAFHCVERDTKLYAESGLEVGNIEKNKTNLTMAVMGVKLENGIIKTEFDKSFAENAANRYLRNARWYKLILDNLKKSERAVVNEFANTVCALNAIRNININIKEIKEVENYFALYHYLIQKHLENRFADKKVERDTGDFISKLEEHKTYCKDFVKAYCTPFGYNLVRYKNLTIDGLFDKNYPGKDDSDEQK

Binder | Kd [nM]
target 1 G5C,C22A (mixed) RNA 1: CACCCGUGCAAAAAUGCAGGGGUCUAAAACUGAGCGGAUAACCUCUCUAUGG RNA 2: GGGAAUGGAUCCACAUCUACGAAUUCGUAACAUAGAGAGGUUAUCCCCUCACCGAGAUCGGAAGAGCACACGU | 17.3 ± 1.9
target 1 insA 3' of 19,insC 3' of 15 (mixed) RNA 1: CACCCGUGCAAAAAUGCAGGGGUCUAAAACUGAGCGGAUAACCUCUCUAUGG RNA 2: GGGAAUGGAUCCACAUCUACGAAUUCGUACCAUAAGAGCAGGUUAUCCGCUCACCGAGAUCGGAAGAGCACACGU | 52 ± 9
target 1 insA 3' of 6,insC 3' of 1 (mixed) RNA 1: CACCCGUGCAAAAAUGCAGGGGUCUAAAACUGAGCGGAUAACCUCUCUAUGG RNA 2: GGGAAUGGAUCCACAUCUACGAAUUCGUACCAUAGAGAGGUUAUCCAGCUCACCCGAGAUCGGAAGAGCACACGU | 17.6 ± 1.1
target 1 insA 3' of 12,insC 3' of 12 (mixed) RNA 1: CACCCGUGCAAAAAUGCAGGGGUCUAAAACUGAGCGGAUAACCUCUCUAUGG RNA 2: GGGAAUGGAUCCACAUCUACGAAUUCGUACCAUAGAGAGGACUUAUCCGCUCACCGAGAUCGGAAGAGCACACGU | 30.4 ± 1.8
target 1 C2G,U8A (mixed) RNA 1: CACCCGUGCAAAAAUGCAGGGGUCUAAAACUGAGCGGAUAACCUCUCUAUGG RNA 2: GGGAAUGGAUCCACAUCUACGAAUUCGUACCAUAGAGAGGUUAACCGCUGACCGAGAUCGGAAGAGCACACGU | 13.5 ± 0.8
target 1 insU 3' of 13,insC 3' of 3 (mixed) RNA 1: CACCCGUGCAAAAAUGCAGGGGUCUAAAACUGAGCGGAUAACCUCUCUAUGG RNA 2: GGGAAUGGAUCCACAUCUACGAAUUCGUACCAUAGAGAGUGUUAUCCGCUCCACCGAGAUCGGAAGAGCACACGU | 25 ± 5
target 1 insG 3' of 6,insC 3' of 5 (mixed) RNA 1: CACCCGUGCAAAAAUGCAGGGGUCUAAAACUGAGCGGAUAACCUCUCUAUGG RNA 2: GGGAAUGGAUCCACAUCUACGAAUUCGUACCAUAGAGAGGUUAUCCGGCCUCACCGAGAUCGGAAGAGCACACGU | 13.9 ± 1.1
target 1 insU 3' of 20,insA 3' of 19 (mixed) RNA 1: CACCCGUGCAAAAAUGCAGGGGUCUAAAACUGAGCGGAUAACCUCUCUAUGG RNA 2: GGGAAUGGAUCCACAUCUACGAAUUCGUACCAUUAAGAGAGGUUAUCCGCUCACCGAGAUCGGAAGAGCACACGU | 20.9 ± 1.4
target 1 insU 3' of 14,insU 3' of 7 (mixed) RNA 1: CACCCGUGCAAAAAUGCAGGGGUCUAAAACUGAGCGGAUAACCUCUCUAUGG RNA 2: GGGAAUGGAUCCACAUCUACGAAUUCGUACCAUAGAGAUGGUUAUCUCGCUCACCGAGAUCGGAAGAGCACACGU | 77 ± 9
target 1 insU 3' of 18,insA 3' of 6 (mixed) RNA 1: CACCCGUGCAAAAAUGCAGGGGUCUAAAACUGAGCGGAUAACCUCUCUAUGG RNA 2: GGGAAUGGAUCCACAUCUACGAAUUCGUACCAUAUGAGAGGUUAUCCAGCUCACCGAGAUCGGAAGAGCACACGU | 32.6 ± 1.1
target 1 insU 3' of 17,insU 3' of 15 (mixed) RNA 1: CACCCGUGCAAAAAUGCAGGGGUCUAAAACUGAGCGGAUAACCUCUCUAUGG RNA 2: GGGAAUGGAUCCACAUCUACGAAUUCGUACCAUAGUAGUAGGUUAUCCGCUCACCGAGAUCGGAAGAGCACACGU | 64 ± 28
target 1 insC 3' of 18,insA 3' of 6 (mixed) RNA 1: CACCCGUGCAAAAAUGCAGGGGUCUAAAACUGAGCGGAUAACCUCUCUAUGG RNA 2: GGGAAUGGAUCCACAUCUACGAAUUCGUACCAUACGAGAGGUUAUCCAGCUCACCGAGAUCGGAAGAGCACACGU | 32.3 ± 1.5
target 1 C2U,C7A (mixed) RNA 1: CACCCGUGCAAAAAUGCAGGGGUCUAAAACUGAGCGGAUAACCUCUCUAUGG RNA 2: GGGAAUGGAUCCACAUCUACGAAUUCGUACCAUAGAGAGGUUAUACGCUUACCGAGAUCGGAAGAGCACACGU | 6.8 ± 0.5
target 1 insA 3' of 11,insA 3' of 10 (mixed) RNA 1: CACCCGUGCAAAAAUGCAGGGGUCUAAAACUGAGCGGAUAACCUCUCUAUGG RNA 2: GGGAAUGGAUCCACAUCUACGAAUUCGUACCAUAGAGAGGUAUAAUCCGCUCACCGAGAUCGGAAGAGCACACGU | 9.4 ± 0.5
target 1 insG 3' of 16,insC 3' of 15 (mixed) RNA 1: CACCCGUGCAAAAAUGCAGGGGUCUAAAACUGAGCGGAUAACCUCUCUAUGG RNA 2: GGGAAUGGAUCCACAUCUACGAAUUCGUACCAUAGAGGCAGGUUAUCCGCUCACCGAGAUCGGAAGAGCACACGU | 28.8 ± 2.1
target 1 insA 3' of 11,insU 3' of 4 (mixed) RNA 1: CACCCGUGCAAAAAUGCAGGGGUCUAAAACUGAGCGGAUAACCUCUCUAUGG RNA 2: GGGAAUGGAUCCACAUCUACGAAUUCGUACCAUAGAGAGGUAUAUCCGCUUCACCGAGAUCGGAAGAGCACACGU | 13.7 ± 0.9
target 1 insG 3' of 21,insA 3' of 4 (mixed) RNA 1: CACCCGUGCAAAAAUGCAGGGGUCUAAAACUGAGCGGAUAACCUCUCUAUGG RNA 2: GGGAAUGGAUCCACAUCUACGAAUUCGUACCGAUAGAGAGGUUAUCCGCAUCACCGAGAUCGGAAGAGCACACGU | 41 ± 10
target 1 C2A,A9C (mixed) RNA 1: CACCCGUGCAAAAAUGCAGGGGUCUAAAACUGAGCGGAUAACCUCUCUAUGG RNA 2: GGGAAUGGAUCCACAUCUACGAAUUCGUACCAUAGAGAGGUUCUCCGCUAACCGAGAUCGGAAGAGCACACGU | 12.2 ± 0.4
target 1 insU 3' of 2,insG 3' of 1 (mixed) RNA 1: CACCCGUGCAAAAAUGCAGGGGUCUAAAACUGAGCGGAUAACCUCUCUAUGG RNA 2: GGGAAUGGAUCCACAUCUACGAAUUCGUACCAUAGAGAGGUUAUCCGCUCUAGCCGAGAUCGGAAGAGCACACGU | 12.2 ± 0.6
target 1 insU 3' of 12,insC 3' of 3 (mixed) RNA 1: CACCCGUGCAAAAAUGCAGGGGUCUAAAACUGAGCGGAUAACCUCUCUAUGG RNA 2: GGGAAUGGAUCCACAUCUACGAAUUCGUACCAUAGAGAGGUUUAUCCGCUCCACCGAGAUCGGAAGAGCACACGU | 8.3 ± 0.6
target 1 insU 3' of 7,insU 3' of 2 (mixed) RNA 1: CACCCGUGCAAAAAUGCAGGGGUCUAAAACUGAGCGGAUAACCUCUCUAUGG RNA 2: GGGAAUGGAUCCACAUCUACGAAUUCGUACCAUAGAGAGGUUAUCUCGCUCUACCGAGAUCGGAAGAGCACACGU | 21.3 ± 1.1
target 1 insC 3' of 22,insG 3' of 16 (mixed) RNA 1: CACCCGUGCAAAAAUGCAGGGGUCUAAAACUGAGCGGAUAACCUCUCUAUGG RNA 2: GGGAAUGGAUCCACAUCUACGAAUUCGUACCCAUAGAGGAGGUUAUCCGCUCACCGAGAUCGGAAGAGCACACGU | 75 ± 21
target 1 insC 3' of 14,insG 3' of 10 (mixed) RNA 1: CACCCGUGCAAAAAUGCAGGGGUCUAAAACUGAGCGGAUAACCUCUCUAUGG RNA 2: GGGAAUGGAUCCACAUCUACGAAUUCGUACCAUAGAGACGGUUGAUCCGCUCACCGAGAUCGGAAGAGCACACGU | 43 ± 10
target 1 C6U,U10A (mixed) RNA 1: CACCCGUGCAAAAAUGCAGGGGUCUAAAACUGAGCGGAUAACCUCUCUAUGG RNA 2: GGGAAUGGAUCCACAUCUACGAAUUCGUACCAUAGAGAGGUAAUCUGCUCACCGAGAUCGGAAGAGCACACGU | 9.8 ± 0.4
target 1 insC 3' of 22,insA 3' of 12 (mixed) RNA 1: CACCCGUGCAAAAAUGCAGGGGUCUAAAACUGAGCGGAUAACCUCUCUAUGG RNA 2: GGGAAUGGAUCCACAUCUACGAAUUCGUACCCAUAGAGAGGAUUAUCCGCUCACCGAGAUCGGAAGAGCACACGU | 42 ± 5
target 1 G17A,A18C (mixed) RNA 1: CACCCGUGCAAAAAUGCAGGGGUCUAAAACUGAGCGGAUAACCUCUCUAUGG RNA 2: GGGAAUGGAUCCACAUCUACGAAUUCGUACCAUCAAGAGGUUAUCCGCUCACCGAGAUCGGAAGAGCACACGU | 67 ± 10
target 1 insU 3' of 15,insU 3' of 9 (mixed) RNA 1: CACCCGUGCAAAAAUGCAGGGGUCUAAAACUGAGCGGAUAACCUCUCUAUGG RNA 2: GGGAAUGGAUCCACAUCUACGAAUUCGUACCAUAGAGUAGGUUAUUCCGCUCACCGAGAUCGGAAGAGCACACGU | 59 ± 16
target 1 insU 3' of 15,insU 3' of 12 (mixed) RNA 1: CACCCGUGCAAAAAUGCAGGGGUCUAAAACUGAGCGGAUAACCUCUCUAUGG RNA 2: GGGAAUGGAUCCACAUCUACGAAUUCGUACCAUAGAGUAGGUUUAUCCGCUCACCGAGAUCGGAAGAGCACACGU | 8.1 ± 0.4
